± gives the standard deviation of the averaged measurements.
Assay: total protein half-life in vivo (active degradation + dilution); higher = more stable protein
[1] = E. coli NCM3722 delta-clpP delta-lon delta-hslV, growth: N-lim chemostat, doubling time 6 h
[2] = E. coli NCM3722 delta-clpP, growth: N-lim chemostat, doubling time 6 h
[3] = E. coli NCM3722 delta-hslV, growth: N-lim chemostat, doubling time 6 h
[4] = E. coli NCM3722 delta-lon, growth: N-lim chemostat, doubling time 6 h
[5] = E. coli NCM3722 delta-smpB, growth: N-lim chemostat, doubling time 6 h
[6] = wild type E. coli NCM3722, growth: C-lim chemostat, doubling time 3 h
[7] = wild type E. coli NCM3722, growth: C-lim chemostat, doubling time 6 h
[8] = wild type E. coli NCM3722, growth: N-lim chemostat, doubling time 6 h
[9] = wild type E. coli NCM3722, growth: N-lim chemostat, doubling time 12 h
[10] = wild type E. coli NCM3722, growth: P-lim chemostat, doubling time 6 h
[11] = wild type E. coli NCM3722, growth: P-lim chemostat, doubling time 12 h
[12] = wild type E. coli NCM3722, growth: C-lim chemostat, doubling time 12 h

Sequence | total protein half-life in vivo [1] [h] | total protein half-life in vivo [2] [h] | total protein half-life in vivo [3] [h] | total protein half-life in vivo [4] [h] | total protein half-life in vivo [5] [h] | total protein half-life in vivo [6] [h] | total protein half-life in vivo [7] [h] | total protein half-life in vivo [8] [h] | total protein half-life in vivo [9] [h] | total protein half-life in vivo [10] [h] | total protein half-life in vivo [11] [h] | total protein half-life in vivo [12] [h]
MQTQVLFEHPLNEKMRTWLRIEFLIQQLTVNLPIVDHAGALHFFRNVSELLDVFERGEVRTELLKELDRQQRKLQTWIGVPGVDQSRIEALIQQLKAAGSVLISAPRIGQFLREDRLIALVRQRLSIPGGCCSFDLPTLHIWLHLPQAQRDSQVETWIASLNPLTQALTMVLDLIRQSAPFRKQTSLNGFYQDNGGDADLLRLNLSLDSQLYPQISGHKSRFAIRFMPLDTENGQVPERLDFELACC | 6.32 ± 0.19 | 6.18 ± 0.41 | 6.06 ± 1.5 | 5.0717 ± 0.004 | 4.94 ± 0.2 | 2.66 ± 0.025 | 6.55 ± 0.5 | 4.87 ± 1.7 | 11.4 ± 6.5 | 5.66 ± 0.3 | 12.3 ± 1.5 | 
MQTSPLLTQLMEALRCLPGVGPKSAQRMAFTLLQRDRSGGMRLAQALTRAMSEIGHCADCRTFTEQEVCNICSNPRRQENGQICVVESPADIYAIEQTGQFSGRYFVLMGHLSPLDGIGPDDIGLDRLEQRLAEEKITEVILATNPTVEGEATANYIAELCAQYDVEASRIAHGVPVGGELEMVDGTTLSHSLAGRHKIRF [P0A7H6] | 5.56 ± 0.29 | 5.19 ± 0.32 | 4.36 ± 0.27 | 4.59 ± 0.36 | 4.21 ± 0.85 | 2.52 ± 0.099 | 4.09 | 4.67 | 6.74 ± 0.68 | 4.79 ± 0.23 | 8.59 | 8.57 ± 0.99
MQVLHVCSEMFPLLKTGGLADVIGALPAAQIADGVDARVLLPAFPDIRRGVTDAQVVSRRDTFAGHITLLFGHYNGVGIYLIDAPHLYDRPGSPYHDTNLFAYTDNVLRFALLGWVGAEMASGLDPFWRPDVVHAHDWHAGLAPAYLAARGRPAKSVFTVHNLAYQGMFYAHHMNDIQLPWSFFNIHGLEFNGQISFLKAGLYYADHITAVSPTYAREITEPQFAYGMEGLLQQRHREGRLSGVLNGVDEKIWSPETDLLLASRYTRDTLEDKAENKRQLQIAMGLKVDDKVPLFAVVSRLTSQKGLDLVLEALPGLLEQGGQLALLGAGDPVLQEGFLAAAAEYPGQVGVQIGYHEAFSHRIMGGADVILVPSRFEPCGLTQLYGLKYGTLPLVRRTGGLADTVSDCSLENLADGVASGFVFEDSNAWSLLRAIRRAFVLWSRPSLWRFVQRQAMAMDFSWQVAAKSYRELYYRLK [P0A6U8] | 6.98 ± 0.61 | 6.92 ± 1.1 | 6.028 ± 0.0091 | 5.806 ± 0.035 | 5.83 ± 0.06 | 3.03 ± 0.11 | 6.7 ± 0.36 | 6.21 ± 0.21 | 13.2 ± 2 | 6.32 ± 0.3 | 12.4 ± 0.65 | 11.4 ± 0.49
MQVLPPSSTGGPSRLFIMRPVATTLLMVAILLAGIIGYRALPVSALPEVDYPTIQVVTLYPGASPDVMTSAVTAPLERQFGQMSGLKQMSSQSSGGASVITLQFQLTLPLDVAEQEVQAAINAATNLLPSDLPNPPVYSKVNPADPPIMTLAVTSTAMPMTQVEDMVETRVAQKISQISGVGLVTLSGGQRPAVRVKLNAQAIAALGLTSETVRTAITGANVNSAKGSLDGPSRAVTLSANDQMQSAEEYRQLIIAYQNGAPIRLGDVATVEQGAENSWLGAWANKEQAIVMNVQRQPGANIISTADSIRQMLPQLTESLPKSVKVTVLSDRTTNIRASVDDTQFELMMAIALVVMIIYLFLRNIPATIIPGVAVPLSLIGTFAVMVFLDFSINNLTLMALTIATGFVVDDAIVVIENISRYIEKGEKPLAAALKGAGEIGFTIISLTFSLIAVLIPLLFMGDIVGRLFREFAITLAVAILISAVVSLTLTPMMCARMLSQESLRKQNRFSRASEKMFDRIIAAYGRGLAKVLNHPWLTLSVALSTLLLSVLLWVFIPKGFFPVQDNGIIQGTLQAPQSSSFANMAQRQRQVADVILQDPAVQSLTSFVGVDGTNPSLNSARLQINLKPLDERDDRVQKVIARLQTAVDKVPGVDLFLQPTQDLTIDTQVSRTQYQFTLQATSLDALSTWVPQLMEKLQQLPQLSDVSSDWQDKGLVAYVNVDRDSASRLGISMADVDNALYNAFGQRLISTIYTQANQYRVVLEHNTENTPGLAALDTIRLTSSDGGVVPLSSIAKIEQRFAPLSINHLDQFPVTTISFNVPDNYSLGDAVQAIMDTEKTLNLPVDITTQFQGSTLAFQSALGSTVWLIVAAVVAMYIVLGILYESFIHPITILSTLPTAGVGALLALLIAGSELDVIAIIGIILLIGIVKKNAIMMIDFALAAEREQGMSPREAIYQACLLRFRPILMTTLAALLGALPLMLSTGVGAELRRPLGIGMVGGLIVSQVLTLFTTPVIYLLFDRLALWTKSRFARHEEEA | 6.53 ± 0.31 | 6.24 ± 0.12 | 6.58 ± 0.74 | 6.07 ± 0.56 | 5.45 ± 0.45 | 2.98 | 6.17 ± 0.74 | 6.15 ± 0.94 | 13.1 ± 0.4 | 7.07 ± 0.49 | 12.347 ± 0.0014 | 
MQYHRIPHSSLEVSTLGLGTMTFGEQNSEADAHAQLDYAVAQGINLIDVAEMYPVPPRPETQGLTETYVGNWLAKHGSREKLIIASKVSGPSRNNDKGIRPDQALDRKNIREALHDSLKRLQTDYLDLYQVHWPQRPTNCFGKLGYSWTDSAPAVSLLDTLDALAEYQRAGKIRYIGVSNETAFGVMRYLHLADKHDLPRIVTIQNPYSLLNRSFEVGLAEVSQYEGVELLAYSCLGFGTLTGKYLNGAKPAGARNTLFSRFTRYSGEQTQKAVAAYVDIARRHGLDPAQMALAFVRRQPFVASTLLGATTMDQLKTNIESLHLELSEDVLAEIEAVHQVYTYPAP [P0A9T4] | 5.76 ± 0.33 | 5.29 ± 0.14 | 5.5 ± 0.14 | 4.99 ± 0.068 | 4.6 ± 0.38 | 3.41 ± 0.077 | 5.9 ± 0.19 | 4.88 ± 0.55 | 8.51 ± 0.57 | 6.32 ± 0.44 | 12.8 ± 0.13 | 10.4 ± 0.85
MQYIKIHALDNVAVALADLAEGTEVSVDNQTVTLRQDVARGHKFALTDIAKGANVIKYGLPIGYALADIAAGVHVHAHNTRTNLSDLDQYRYQPDFQDLPAQAADREVQIYRRANGDVGVRNELWILPTVGCVNGIARQIQNRFLKETNNAEGTDGVFLFSHTYGCSQLGDDHINTRTMLQNMVRHPNAGAVLVIGLGCENNQVAAFRETLGDIDPERVHFMICQQQDDEIEAGIEHLHQLYNVMRNDKREPGKLSELKFGLECGGSDGLSGITANPMLGRFSDYVIANGGTTVLTEVPEMFGAEQLLMDHCRDEATFEKLVTMVNDFKQYFIAHDQPIYENPSPGNKAGGITTLEDKSLGCTQKAGSSVVVDVLRYGERLKTPGLNLLSAPGNDAVATSALAGAGCHMVLFSTGRGTPYGGFVPTVKIATNSELAAKKKHWIDFDAGQLIHGKAMPQLLEEFIDTIVEFANGKQTCNERNDFRELAIFKSGVTL | 4.17 ± 0.22 | 3.03 ± 0.15 | 2.65 ± 0.042 | 3.4 | 2.51 ± 0.36 | 2.61 ± 0.27 | 3.9 ± 0.23 | 2.63 ± 0.13 | 3.74 ± 0.76 | 3.94 ± 1.4 | 6.84 ± 1.4 | 4.43 ± 0.69
MQYWGKIIGVAVALLMGGGFWGVVLGLLIGHMFDKARSRKMAWFANQRERQALFFATTFEVMGHLTKSKGRVTEADIHIASQLMDRMNLHGASRTAAQNAFRVGKSDNYPLREKMRQFRSVCFGRFDLIRMFLEIQIQAAFADGSLHPNERAVLYVIAEELGISRAQFDQFLRMMQGGAQFGGGYQQQTGGGNWQQAQRGPTLEDACNVLGVKPTDDATTIKRAYRKLMSEHHPDKLVAKGLPPEMMEMAKQKAQEIQQAYELIKQQKGFK |  | 6.42 ± 1.5 |  | 5.92 ± 0.42 | 5.91 ± 0.58 | 2.98 ± 0.14 | 5.97 ± 0.2 | 6.24 ± 0.77 | 11.8 ± 1 | 6.61 ± 0.12 | 12.7 ± 1 | 11.2 ± 0.66
MRADKSLSPFEIRVYRHYRIVHGTRVALAFLLTFLIIRLFTIPESTWPLVTMVVIMGPISFWGNVVPRAFERIGGTVLGSILGLIALQLELISLPLMLVWCAAAMFLCGWLALGKKPYQGLLIGVTLAIVVGSPTGEIDTALWRSGDVILGSLLAMLFTGIWPQRAFIHWRIQLAKSLTEYNRVYQSAFSPNLLERPRLESHLQKLLTDAVKMRGLIAPASKETRIPKSIYEGIQTINRNLVCMLELQINAYWATRPSHFVLLNAQKLRDTQHMMQQILLSLVHALYEGNPQPVFANTEKLNDAVEELRQLLNNHHDLKVVETPIYGYVWLNMETAHQLELLSNLICRALRK | 6.005 ± 0.0077 |  | 5.415 ± 0.036 | 6.43 ± 0.51 | 5.53 ± 1.8 | 3.27 ± 0.35 | 5.4 ± 0.19 | 5.61 ± 0.075 | 7.75 ± 6 | 4.76 ± 2.1 | 10.6 ± 3.9 | 11.5 ± 0.28
MRAKLLGIVLTTPIAISSFASTETLSFTPDNINADISLGTLSGKTKERVYLAEEGGRKVSQLDWKFNNAAIIKGAINWDLMPQISIGAAGWTTLGSRGGNMVDQDWMDSSNPGTWTDESRHPDTQLNYANEFDLNIKGWLLNEPNYRLGLMAGYQESRYSFTARGGSYIYSSEEGFRDDIGSFPNGERAIGYKQRFKMPYIGLTGSYRYEDFELGGTFKYSGWVESSDNDEHYDPGKRITYRSKVKDQNYYSVAVNAGYYVTPNAKVYVEGAWNRVTNKKGNTSLYDHNNNTSDYSKNGAGIENYNFITTAGLKYTF |  | 6.57 ± 0.46 | 6.305 ± 0.013 | 6.712 ± 0.042 | 5.81 ± 0.35 | 3.21 ± 0.091 | 6.17 ± 0.45 | 6.05 ± 0.22 | 12.2 ± 2.6 | 6.51 ± 0.55 | 13.498 ± 0.0072 | 11.5 ± 0.18
MRALPICLVALMLSGCSMLSRSPVEPVQSTAPQPKAEPAKPKAPRATPVRIYTNAEELVGKPFRDLGEVSGDSCQASNQDSPPSIPTARKRMQINASKMKANAVLLHSCEVTSGTPGCYRQAVCIGSALNITAK | 5.47 ± 0.43 | 5.57 ± 0.38 | 6.58 ± 0.75 | 6.404 ± 0.011 | 5.51 ± 0.33 | 2.89 ± 0.62 | 5.65 ± 0.51 | 5.65 ± 0.16 | 14.7 ± 1.2 | 6.5 ± 1.4 | 13.4 ± 0.85 | 12.4 ± 3.6
